Where two headings read alike, the source gives them in different places.
B1: wild type feline erythropoietin (fEPO) (ligand)
chain: APPRLICDSRVLERYILEAREAENVTMGCAEGCSFSENITVPDTKVNFYTWKRMDVGQQAVEVWQGLALLSEAILRGQALLANSSQPSETLQLHVDKAVSSLRSLTSLLRALGAQKEATSLPEATSAAPLRTFTVDTLCKLFRIYSNFLRGKLTLYTGEACRRGDR

Tests used:
[1] = molecular target: T1, erythropoietin receptor on TF-1 cells (UniProt P19235 25-508, limits assumed)
T1 sequence (looked up): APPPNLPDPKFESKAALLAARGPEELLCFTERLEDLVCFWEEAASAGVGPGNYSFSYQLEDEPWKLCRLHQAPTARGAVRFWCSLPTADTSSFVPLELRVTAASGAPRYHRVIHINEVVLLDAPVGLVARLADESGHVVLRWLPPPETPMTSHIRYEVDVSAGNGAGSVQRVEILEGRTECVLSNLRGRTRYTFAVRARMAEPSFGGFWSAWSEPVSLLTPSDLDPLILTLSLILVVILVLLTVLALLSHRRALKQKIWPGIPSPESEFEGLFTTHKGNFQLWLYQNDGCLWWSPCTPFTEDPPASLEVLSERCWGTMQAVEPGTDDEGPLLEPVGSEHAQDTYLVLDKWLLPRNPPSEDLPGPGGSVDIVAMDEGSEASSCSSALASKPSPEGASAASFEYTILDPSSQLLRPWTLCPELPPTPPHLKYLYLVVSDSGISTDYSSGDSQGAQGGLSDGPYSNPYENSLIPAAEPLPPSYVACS

[2] = molecular target: T1, erythropoietin receptor on TF-1 cells; remark: listed apart in the source
[3] = molecular target: T1, erythropoietin receptor on TF-1 cells; remark: listed apart in the source
[4] = molecular target: T1, erythropoietin receptor on TF-1 cells; assay: cell-based or functional assay
[5] = molecular target: T1, erythropoietin receptor on TF-1 cells; assay: cell-based or functional assay; remark: listed apart in the source
[6] = molecular target: T1, erythropoietin receptor on TF-1 cells; assay: cell-based or functional assay; remark: listed apart in the source
[7] = molecular target: T1, erythropoietin receptor on TF-1 cells; assay: cell-based or functional assay; remark: listed apart in the source

Molecule	Relative activity compared to wt fEPO (TF-1 proliferation) [1]	also measured
R131 (ligand)	0.8 X	
K116 (ligand)	0.7 X	
S36 (ligand)	0.9 X	
L130 (ligand)	2.6 X	
S120 (ligand)	1.6 X	
R76 (ligand)	0.6 X	fold less active than WT (TF-1 proliferation, EC 50 ng/ml) [2]: 1.6 x
E31 (ligand)	1.4 X	
R53 (ligand)	1.6 X	
D55 (ligand)	1.4 X	
E72 (ligand)	1.2 X	EC50 (TF-1 proliferation, 450nm; stored 5 weeks at +4 degrees C) [3]: 2.1 ng/mL; EC50 (TF-1 proliferation, 450nm; stored 5 weeks at -80 degrees C) [3]: 2.1 ng/mL
E21 (ligand)	3.1 X	
T132 (ligand)	3.2 X	
R163 (ligand)	1.1 X	
P129 (ligand)	0.9 X	
A128 (ligand)	1.4 X	fold more active than WT (TF-1 proliferation, EC 50 ng/ml) [2]: 1.4 x
F133 (ligand)	2.2 X	
E37 (ligand)	1.2 X	EC50 (read off the curve) [1]: 3 ng/mL
Y49 (ligand)	2.6 X	
B1		EC50 (read off the curve) [4]: ~3 ng/mL; EC50 (read off the curve) [5]: ~2 ng/mL; EC50 (TF-1 proliferation, 450nM) [6]: 3.2 ng/mL; EC50 (TF-1 proliferation; Starting [fEPO] 250ng/ml; Theoretical Activity 0.5x, Actual Activity 0.6x) [7]: 4.7 ng/mL; EC50 (TF-1 proliferation; Starting [fEPO] 500ng/ml; Theoretical Activity 1x, Actual Activity 1x) [7]: 2.8 ng/mL; EC50 (TF-1 proliferation; Starting [fEPO] 1000ng/ml; Theoretical Activity 2x, Actual Activity 2x) [7]: 1.4 ng/mL

From patent US20100093608A1 (Eli Lilly, published 2010)
